Measurements taken from patent EP4663654A1 (Hangzhou Sciwind Biosciences Co., Ltd., dated 2025).
Starred links: 1 amine or outer side, 2 acyl side, 3 side chain; linkers in the order of their positions; H or OH if unused. Non-standard residues stand in square brackets, D forms with d. *: point of attachment. C20 diacid = O=C(O)CCCCCCCCCCCCCCCCCCC(=O)*; γGlu = O=C(O)[C@H](CCC(=O)[*:2])N[*:1]; Hyp = O=C(O)[C@@H]1C[C@@H](O)CN1; NMeD = CN[C@@H](CC(=O)O)C(=O)O; NMeN = CN[C@@H](CC(N)=O)C(=O)O

Biological target: T1, human amylin receptor (AMY3) on CHO-K1/Ga15/AMY3 amylin receptor/CRE-luc cells (human, UniProt P30988 25-474; O60896 24-148)
T1 sequence (looked up) 1: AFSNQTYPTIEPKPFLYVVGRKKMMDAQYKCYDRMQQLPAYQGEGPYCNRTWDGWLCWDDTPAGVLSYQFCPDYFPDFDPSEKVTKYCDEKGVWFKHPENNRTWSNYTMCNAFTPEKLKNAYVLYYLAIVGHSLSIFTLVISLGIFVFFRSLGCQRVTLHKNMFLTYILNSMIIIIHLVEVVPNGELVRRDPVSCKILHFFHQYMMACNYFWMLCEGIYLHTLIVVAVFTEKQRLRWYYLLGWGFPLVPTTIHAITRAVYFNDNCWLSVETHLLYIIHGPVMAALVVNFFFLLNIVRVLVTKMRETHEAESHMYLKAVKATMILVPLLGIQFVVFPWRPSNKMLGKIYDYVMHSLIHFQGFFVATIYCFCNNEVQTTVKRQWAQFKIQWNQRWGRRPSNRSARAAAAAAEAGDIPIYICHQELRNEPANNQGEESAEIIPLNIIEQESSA
T1 sequence (looked up) 2: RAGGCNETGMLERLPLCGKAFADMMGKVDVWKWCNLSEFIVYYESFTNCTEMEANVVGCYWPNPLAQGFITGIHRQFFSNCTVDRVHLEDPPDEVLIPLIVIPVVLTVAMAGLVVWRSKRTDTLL
Experiment: cell-based or functional assay

B1: polypeptide derivative M46 (peptide)
peptide: {C20 diacid-γGlu}-ASQLSTAATQRLADFLRHSSQNLKPILPPTNVGSNT[Hyp]-NH2
SMILES: CC[C@H](C)[C@H](NC(=O)[C@@H]1CCCN1C(=O)[C@H](CCCCN)NC(=O)[C@H](CC(C)C)NC(=O)[C@H](CC(N)=O)NC(=O)[C@H](CCC(N)=O)NC(=O)[C@H](CO)NC(=O)[C@H](CO)NC(=O)[C@H](Cc1c[nH]cn1)NC(=O)[C@H](CCCNC(=N)N)NC(=O)[C@H](CC(C)C)NC(=O)[C@H](Cc1ccccc1)NC(=O)[C@H](CC(=O)O)NC(=O)[C@H](C)NC(=O)[C@H](CC(C)C)NC(=O)[C@H](CCCNC(=N)N)NC(=O)[C@H](CCC(N)=O)NC(=O)[C@@H](NC(=O)[C@H](C)NC(=O)[C@H](C)NC(=O)[C@@H](NC(=O)[C@H](CO)NC(=O)[C@H](CC(C)C)NC(=O)[C@H](CCC(N)=O)NC(=O)[C@H](CO)NC(=O)[C@H](C)NC(=O)CC[C@H](NC(=O)CCCCCCCCCCCCCCCCCCC(=O)O)C(=O)O)[C@@H](C)O)[C@@H](C)O)C(=O)N[C@@H](CC(C)C)C(=O)N1CCC[C@H]1C(=O)N1CCC[C@H]1C(=O)N[C@H](C(=O)N[C@@H](CC(N)=O)C(=O)N[C@H](C(=O)NCC(=O)N[C@@H](CO)C(=O)N[C@@H](CC(N)=O)C(=O)N[C@H](C(=O)N1C[C@H](O)C[C@H]1C(N)=O)[C@@H](C)O)C(C)C)[C@@H](C)O
EC50/nM, CRE-luciferase reporter in amylin receptor/CRE-luc CHO cells: 0.06 nM
Relative activity (the EC50 ratio of Cagrilintide to the compound): 150%

B2: polypeptide derivative M45 (peptide)
peptide: {C20 diacid-γGlu}-ASQLSTAATQRLADFLRHSSN[NMeD]LKPILPPTNVGSNT[Hyp]-NH2
SMILES: CC[C@H](C)[C@H](NC(=O)[C@@H]1CCCN1C(=O)[C@H](CCCCN)NC(=O)[C@H](CC(C)C)NC(=O)[C@H](CC(=O)O)N(C)C(=O)[C@H](CC(N)=O)NC(=O)[C@H](CO)NC(=O)[C@H](CO)NC(=O)[C@H](Cc1c[nH]cn1)NC(=O)[C@H](CCCNC(=N)N)NC(=O)[C@H](CC(C)C)NC(=O)[C@H](Cc1ccccc1)NC(=O)[C@H](CC(=O)O)NC(=O)[C@H](C)NC(=O)[C@H](CC(C)C)NC(=O)[C@H](CCCNC(=N)N)NC(=O)[C@H](CCC(N)=O)NC(=O)[C@@H](NC(=O)[C@H](C)NC(=O)[C@H](C)NC(=O)[C@@H](NC(=O)[C@H](CO)NC(=O)[C@H](CC(C)C)NC(=O)[C@H](CCC(N)=O)NC(=O)[C@H](CO)NC(=O)[C@H](C)NC(=O)CC[C@H](NC(=O)CCCCCCCCCCCCCCCCCCC(=O)O)C(=O)O)[C@@H](C)O)[C@@H](C)O)C(=O)N[C@@H](CC(C)C)C(=O)N1CCC[C@H]1C(=O)N1CCC[C@H]1C(=O)N[C@H](C(=O)N[C@@H](CC(N)=O)C(=O)N[C@H](C(=O)NCC(=O)N[C@@H](CO)C(=O)N[C@@H](CC(N)=O)C(=O)N[C@H](C(=O)N1C[C@H](O)C[C@H]1C(N)=O)[C@@H](C)O)C(C)C)[C@@H](C)O
EC50/nM, CRE-luciferase reporter in amylin receptor/CRE-luc CHO cells: 0.07 nM
Relative activity (the EC50 ratio of Cagrilintide to the compound): 129%

B3: polypeptide derivative M47 (peptide)
peptide: {C20 diacid-γGlu}-ASQLSTAATQRLADFLRHSSENLKPILPPTNVGSNT[Hyp]-NH2
SMILES: CC[C@H](C)[C@H](NC(=O)[C@@H]1CCCN1C(=O)[C@H](CCCCN)NC(=O)[C@H](CC(C)C)NC(=O)[C@H](CC(N)=O)NC(=O)[C@H](CCC(=O)O)NC(=O)[C@H](CO)NC(=O)[C@H](CO)NC(=O)[C@H](Cc1c[nH]cn1)NC(=O)[C@H](CCCNC(=N)N)NC(=O)[C@H](CC(C)C)NC(=O)[C@H](Cc1ccccc1)NC(=O)[C@H](CC(=O)O)NC(=O)[C@H](C)NC(=O)[C@H](CC(C)C)NC(=O)[C@H](CCCNC(=N)N)NC(=O)[C@H](CCC(N)=O)NC(=O)[C@@H](NC(=O)[C@H](C)NC(=O)[C@H](C)NC(=O)[C@@H](NC(=O)[C@H](CO)NC(=O)[C@H](CC(C)C)NC(=O)[C@H](CCC(N)=O)NC(=O)[C@H](CO)NC(=O)[C@H](C)NC(=O)CC[C@H](NC(=O)CCCCCCCCCCCCCCCCCCC(=O)O)C(=O)O)[C@@H](C)O)[C@@H](C)O)C(=O)N[C@@H](CC(C)C)C(=O)N1CCC[C@H]1C(=O)N1CCC[C@H]1C(=O)N[C@H](C(=O)N[C@@H](CC(N)=O)C(=O)N[C@H](C(=O)NCC(=O)N[C@@H](CO)C(=O)N[C@@H](CC(N)=O)C(=O)N[C@H](C(=O)N1C[C@H](O)C[C@H]1C(N)=O)[C@@H](C)O)C(C)C)[C@@H](C)O
EC50/nM, CRE-luciferase reporter in amylin receptor/CRE-luc CHO cells: 0.08 nM
Relative activity (the EC50 ratio of Cagrilintide to the compound): 113%

B4: polypeptide derivative M44 (peptide)
peptide: {C20 diacid-γGlu}-ASQLSTAATQRLADFLRHSSN[NMeN]LKPILPPTNVGSNT[Hyp]-NH2
SMILES: CC[C@H](C)[C@H](NC(=O)[C@@H]1CCCN1C(=O)[C@H](CCCCN)NC(=O)[C@H](CC(C)C)NC(=O)[C@H](CC(N)=O)N(C)C(=O)[C@H](CC(N)=O)NC(=O)[C@H](CO)NC(=O)[C@H](CO)NC(=O)[C@H](Cc1c[nH]cn1)NC(=O)[C@H](CCCNC(=N)N)NC(=O)[C@H](CC(C)C)NC(=O)[C@H](Cc1ccccc1)NC(=O)[C@H](CC(=O)O)NC(=O)[C@H](C)NC(=O)[C@H](CC(C)C)NC(=O)[C@H](CCCNC(=N)N)NC(=O)[C@H](CCC(N)=O)NC(=O)[C@@H](NC(=O)[C@H](C)NC(=O)[C@H](C)NC(=O)[C@@H](NC(=O)[C@H](CO)NC(=O)[C@H](CC(C)C)NC(=O)[C@H](CCC(N)=O)NC(=O)[C@H](CO)NC(=O)[C@H](C)NC(=O)CC[C@H](NC(=O)CCCCCCCCCCCCCCCCCCC(=O)O)C(=O)O)[C@@H](C)O)[C@@H](C)O)C(=O)N[C@@H](CC(C)C)C(=O)N1CCC[C@H]1C(=O)N1CCC[C@H]1C(=O)N[C@H](C(=O)N[C@@H](CC(N)=O)C(=O)N[C@H](C(=O)NCC(=O)N[C@@H](CO)C(=O)N[C@@H](CC(N)=O)C(=O)N[C@H](C(=O)N1C[C@H](O)C[C@H]1C(N)=O)[C@@H](C)O)C(C)C)[C@@H](C)O
EC50/nM, CRE-luciferase reporter in amylin receptor/CRE-luc CHO cells: 0.1 nM
Relative activity (the EC50 ratio of Cagrilintide to the compound): 130%

B5: polypeptide derivative M43 (peptide)
peptide: {C20 diacid-γGlu}-ASQLSTAATQRLADFLRHSSSSLKPILPPTNVGSNT[Hyp]-NH2
SMILES: CC[C@H](C)[C@H](NC(=O)[C@@H]1CCCN1C(=O)[C@H](CCCCN)NC(=O)[C@H](CC(C)C)NC(=O)[C@H](CO)NC(=O)[C@H](CO)NC(=O)[C@H](CO)NC(=O)[C@H](CO)NC(=O)[C@H](Cc1c[nH]cn1)NC(=O)[C@H](CCCNC(=N)N)NC(=O)[C@H](CC(C)C)NC(=O)[C@H](Cc1ccccc1)NC(=O)[C@H](CC(=O)O)NC(=O)[C@H](C)NC(=O)[C@H](CC(C)C)NC(=O)[C@H](CCCNC(=N)N)NC(=O)[C@H](CCC(N)=O)NC(=O)[C@@H](NC(=O)[C@H](C)NC(=O)[C@H](C)NC(=O)[C@@H](NC(=O)[C@H](CO)NC(=O)[C@H](CC(C)C)NC(=O)[C@H](CCC(N)=O)NC(=O)[C@H](CO)NC(=O)[C@H](C)NC(=O)CC[C@H](NC(=O)CCCCCCCCCCCCCCCCCCC(=O)O)C(=O)O)[C@@H](C)O)[C@@H](C)O)C(=O)N[C@@H](CC(C)C)C(=O)N1CCC[C@H]1C(=O)N1CCC[C@H]1C(=O)N[C@H](C(=O)N[C@@H](CC(N)=O)C(=O)N[C@H](C(=O)NCC(=O)N[C@@H](CO)C(=O)N[C@@H](CC(N)=O)C(=O)N[C@H](C(=O)N1C[C@H](O)C[C@H]1C(N)=O)[C@@H](C)O)C(C)C)[C@@H](C)O
EC50/nM, CRE-luciferase reporter in amylin receptor/CRE-luc CHO cells: 0.05 nM
Relative activity (the EC50 ratio of Cagrilintide to the compound): 180%

B6: polypeptide derivative M48 (peptide)
peptide: {C20 diacid-γGlu}-ASQLSTAATQRLADFLRHSSSNLKPILPPTNVGSNT[Hyp]-NH2
SMILES: CC[C@H](C)[C@H](NC(=O)[C@@H]1CCCN1C(=O)[C@H](CCCCN)NC(=O)[C@H](CC(C)C)NC(=O)[C@H](CC(N)=O)NC(=O)[C@H](CO)NC(=O)[C@H](CO)NC(=O)[C@H](CO)NC(=O)[C@H](Cc1c[nH]cn1)NC(=O)[C@H](CCCNC(=N)N)NC(=O)[C@H](CC(C)C)NC(=O)[C@H](Cc1ccccc1)NC(=O)[C@H](CC(=O)O)NC(=O)[C@H](C)NC(=O)[C@H](CC(C)C)NC(=O)[C@H](CCCNC(=N)N)NC(=O)[C@H](CCC(N)=O)NC(=O)[C@@H](NC(=O)[C@H](C)NC(=O)[C@H](C)NC(=O)[C@@H](NC(=O)[C@H](CO)NC(=O)[C@H](CC(C)C)NC(=O)[C@H](CCC(N)=O)NC(=O)[C@H](CO)NC(=O)[C@H](C)NC(=O)CC[C@H](NC(=O)CCCCCCCCCCCCCCCCCCC(=O)O)C(=O)O)[C@@H](C)O)[C@@H](C)O)C(=O)N[C@@H](CC(C)C)C(=O)N1CCC[C@H]1C(=O)N1CCC[C@H]1C(=O)N[C@H](C(=O)N[C@@H](CC(N)=O)C(=O)N[C@H](C(=O)NCC(=O)N[C@@H](CO)C(=O)N[C@@H](CC(N)=O)C(=O)N[C@H](C(=O)N1C[C@H](O)C[C@H]1C(N)=O)[C@@H](C)O)C(C)C)[C@@H](C)O
EC50/nM, CRE-luciferase reporter in amylin receptor/CRE-luc CHO cells: 0.05 nM
Relative activity (the EC50 ratio of Cagrilintide to the compound): 180%
